From patent US20140325692, “BLUE-LIGHT INDUCIBLE SYSTEM FOR GENE EXPRESSION” (BOARD OF REGENTS, THE UNIVERSITY OF TEXAS SYSTEM, published 2014)

T1: EL222 (14-222) wild type (Erythrobacter litoralis, UniProt Q2NB98 SEQ:1-209)
T1 chain: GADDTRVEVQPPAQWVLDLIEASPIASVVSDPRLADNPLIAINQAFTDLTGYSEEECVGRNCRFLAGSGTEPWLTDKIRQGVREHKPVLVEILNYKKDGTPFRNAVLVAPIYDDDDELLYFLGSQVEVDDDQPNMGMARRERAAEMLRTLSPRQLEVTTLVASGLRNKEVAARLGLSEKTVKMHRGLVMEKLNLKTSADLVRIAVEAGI


Tests used:
Details in all cases: tags: His6-Gβ1 (pHis6-Gβ1-Parallel1); label: 5'-32P
EL222 (14-222) wild type [1] = target: T1, EL222 (14-222) wild type; assay: EMSA; light, 4 C, 3 mM MgCl2; 33 bp randomized region printed
Protocol: (§1) DNA pools derived from each SELEX cycle were PCR amplified as described previously in the SELEX procedure. Complementary oligonucleotides for each individual SELEX-derived clone sequence were chemically synthesized (Sigma), heated to 95-100° C. for 5 min and left to cool to room temperature to anneal the oligonucleotides. DNAs were 5′-end labeled in a 50 μl reaction containing (final concentrations) 68 nM DNA substrate, 70 mM Tris-Cl pH 7.6, 10 mM MgCl₂, 5 mM DTT, 0.6 μCi ATP [γ-³²P] (Perkin Elmer, cat. no. BLU502Z500UC), and 0.2 U PNK (New England Biolabs Inc.). The reaction was incubated for 30 min at 37° C., followed by a 20 min incubation at 65° C. to heat inactivate the enzyme. The ³²P-labeled DNA was purified from the unincorporated ATP [γ-³²P] using Illustra ProbeQuant G-50 micro-columns (GE Healthcare). Approximately 13.6 nM radiolabeled DNA was incubated with varying concentrations of WT-EL222 in the same binding buffer used for SELEX procedure for 25 min at 4° C. with continuous illumination with a white LED light. Reactions were analyzed on a 5% native gel (Acrylamide/Bis 29:1) and run in TBE buffer at 150 V for 1.5 hr at 4° C. The gel was exposed to a PhosphorImaging plate and visualized using FujiFilm FLA-5100 imaging system.

EL222 (14-222) wild type [2] = target: T1, EL222 (14-222) wild type; assay: EMSA; light, 4 C, 3 mM MgCl2
Protocol: as §1

EL222 (14-222) wild type [3] = target: T1, EL222 (14-222) wild type; assay: EMSA; white LED light, 4 C, 10 mM Tris pH 8.0, 80 mM NaCl, 3 mM MgCl2
Protocol: as §1

| Binder | binding result (EL222 (14-222) wild type [1]) | further results |
| --- | --- | --- |
| Clone-3 (dsDNA) DNA 1: TAGACTTAAGTCTAGTACACAAGTTTTCCAGGG DNA 2: CCCTGGAAAACTTGTGTACTAGACTTAAGTCTA | binds |  |
| Clone-2 (dsDNA) DNA 1: AGCTAGGCTTTTGGTCTGTATAGCTGTCTTATA DNA 2: TATAAGACAGCTATACAGACCAAAAGCCTAGCT | binds |  |
| C1-2 (dsDNA) DNA 1: TAGGTAGCCTTTAGTCCATG DNA 2: CATGGACTAAAGGCTACCTA |  | binding result (EL222 (14-222) wild type [2]): binds |
| Clone-22 (dsDNA) DNA 1: TATAGGGCTTTAGTCTGTATGTGGGATGTGTGT DNA 2: ACACACATCCCACATACAGACTAAAGCCCTATA | binds |  |
| Clone-78 (dsDNA) DNA 1: GCCCTAAGACTGTATCTTATTCGTGAGTTTTAA DNA 2: TTAAAACTCACGAATAAGATACAGTCTTAGGGC | binds |  |
| Clone-77 (dsDNA) DNA 1: CAGATACATGCTTTAGTACGTATATTCGATGTC DNA 2: GACATCGAATATACGTACTAAAGCATGTATCTG | binds |  |
| Clone-53 (dsDNA) DNA 1: CATGGCCTAAGGACTGTAAGTACTATTAAATAC DNA 2: GTATTTAATAGTACTTACAGTCCTTAGGCCATG | binds |  |
| Clone-1 (dsDNA) DNA 1: TCTACGTTATAGGTAGCCTTTAGTCCATGCTGATTCGTTTTCAAC DNA 2: GTTGAAAACGAATCAGCATGGACTAAAGGCTACCTATAACGTAGA |  | binding result (EL222 (14-222) wild type [3]): binds |
